Measured values from patent US6835382B2, “Ii peptide therapeutics to enhance antigen presentation” (University of Massachusetts, priority 1996, dated 2004).
Blank lines part the entries; values can stand above or below the substance they belong to. Non-standard residues stand in square brackets, D forms with d.

Columns and labels:
[1] = molecular target: T1, murine A^d MHC class II allele (Mus musculus, UniProt P01921+P04228); assay: simultaneous assay, A^d allele (A20 APC, 9.30.B2 T hybridoma, HEL11-25); format: cell-based; details: Table 2; for Times Baseline Response, A^d: AE peptide 64 μM, 0.05 μM HEL11-25, supernatant 1:2
T1 construct: The A20 and CH27 B cell lymphoma lines express H-2^d and H-2^k alleles, respectively; endogenous in cells; host or cells: A20 B cell lymphoma (mitomycin C-treated)
T1 sequence (P04228 24-256): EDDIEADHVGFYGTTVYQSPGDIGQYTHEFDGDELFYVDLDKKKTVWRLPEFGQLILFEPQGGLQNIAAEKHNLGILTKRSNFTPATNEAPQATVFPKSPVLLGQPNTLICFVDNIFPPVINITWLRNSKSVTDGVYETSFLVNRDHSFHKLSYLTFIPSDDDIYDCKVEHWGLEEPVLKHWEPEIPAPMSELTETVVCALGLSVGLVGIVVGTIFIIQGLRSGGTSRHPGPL
T1 sequence (P01921 28-265): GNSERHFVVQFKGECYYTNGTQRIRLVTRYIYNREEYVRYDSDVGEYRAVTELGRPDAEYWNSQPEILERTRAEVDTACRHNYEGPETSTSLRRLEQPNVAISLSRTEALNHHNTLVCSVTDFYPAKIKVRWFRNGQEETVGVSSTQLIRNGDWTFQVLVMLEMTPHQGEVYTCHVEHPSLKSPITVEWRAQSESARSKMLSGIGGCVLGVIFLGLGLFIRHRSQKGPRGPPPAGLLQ
Protocol: (§1) In the “simultaneous assay” the four components of the assay are cultured together for a 24 h period. The components of this primary culture, added at the same time or simultaneously, are: (a) the antigenic peptide, (b) mitomycin C-treated, MHC class II-positive antigen presenting cells (APC) with the MHC class II allele required for binding of the specific antigenic peptide and its presentation to the antigenic peptide-specific T cell hybridoma, (c) an AE101 series effector peptide, and (d) MHC class II allele-restricted T cell hybridoma specific for the antigenic peptide and the MHC class II allele restricting its presentation. At the end of the incubation of this primary culture, an aliquot of its supernatant is transferred into a second culture well for incubation with an interleukin-dependent lymphoblastoid cell line. The degree of stimulation of that second, indicator cell by the interleukins which had been released from the activated T cell hybridoma in the primary culture is measured by quantitating tritiated thymidine deoxyribose {[^3H]TdR} uptake into the DNA of the HT-2 indicator cells of that second culture.
(§2) For these various assays, the following antigenic peptides were used: HEL11-25, hen egg lysozyme 11-25, AMKRHGLDNYRGYSL(A^d) (SEQ ID NO:5); HEL46-61, hen egg lysozyme 46-61, NTDGSTDYGILQINSR(Ak) (SEQ ID NO:6); HEL106-116, hen egg lysozyme 106-116, NAWVAWRNRCK (E^d) (SEQ ID NO:7); PGCC81-104, pigeon cytochrome c 81-104, […] (Ek) (SEQ ID NO:8), and THMCC82-103, tobacco hornworm moth cytochrome c 82-103, […] (Ek) (SEQ ID NO:9). AE101 series peptides were obtained from commercial sources. In general, the purity and composition of each peptide was confirmed by HPLC separation and mass spectrometry. The native protein antigens were HEL, hen egg lysozyme, and PGCC, pigeon cytochrome C. They were obtained from commercial sources.
(§3) For the experiments of these Examples, several T cell hybridomas, which are specific for certain antigenic peptides, were used. The TPc9.1 T hybridoma is specific for pigeon cytochrome C 81-104 peptide presented on the murine class II MHC allele E^k. The TPc9.1 hybridoma responds heteroclitically to tobacco hornworm moth cytochrome c 82-103 on E^k. The 3A9 T hybridoma is specific for hen egg lysozyme 46-61 on A^k. The 9.30.B2 hybridoma is specific for hen egg lysozyme 11-25 on A^d, and the G28.C9 hybridoma is specific for hen egg lysozyme 106-116 on E^d. The A20 and CH27 B cell lymphoma lines express H-2^d and H-2^k alleles, respectively.
(§4) Antigenic peptide-specific T cell activation was measured by the following procedure. Mitomycin C-treated A20 cells (A^dE^d) or CH27 cells APC (A^kE^k) were generated by incubating 5×10^6 cells/mL for 20 min at 37° C. with 0.025 mg/mL of mitomycin C (Sigma) in Dulbecco's Modified Eaglel's Medium (DMEM)/10 mM N-2(hydroxyethylpiperazine-N″[2-ethanesulfonic acid] (HEPES), followed by two washes with four volumes of DMEM-5% fetal calf serum (FCS), 10 mM HEPES. Fixed APC were generated by treating 1×10^6 cells/mL for 5 min with 0.5% paraformaldehyde in PBS (pH 7.2), followed by two washes with four volumes of DMEM-10% FCS, 10 mM HEPES. T cell hybridomas were irradiated 2200 rads before each assay.
(§5) For the “simultaneous assay”, 5×10^4 mitomycin C-treated APC, 5×10^4 T hybridoma cells and a submaximal concentration of antigenic peptide were cultured with and without serial 4-fold dilutions of each AE101 series peptide, usually at 64 μM, 16 μM, 4 μM, and 1 μM, at pH 7.2-7.4, in complete DMEM-5% FCS, 10 mM HEPES, 1×nonessential amino acids (Sigma), 1 mM sodium pyruvate, 2 mM L-glutamine, 100 U/mL penicillin G, 100 μg/mL streptomycin sulfate, 5×10^−5 M 2-mercaptoethanol (2-ME). Wells containing only T hybridoma cells (T)+APC were included to monitor for background T cell activation; and wells containing T+APC+AE101 series peptide were included to monitor for non-specific T hybridoma activation by each AE101 series peptide. […]

[2] = molecular target: T2, murine A^k MHC class II allele (Mus musculus, UniProt P01910+P06343); assay: simultaneous assay, A^k allele (CH27 APC, 3A9 T hybridoma, HEL46-61); format: cell-based; details: Table 2; for Times Baseline Response, A^k: AE peptide 64 μM, 0.05 μM HEL46-61, supernatant 1:2; for activity in simultaneous assay in the A^k system, in words: 64 μM
T2 construct: The A20 and CH27 B cell lymphoma lines express H-2^d and H-2^k alleles, respectively; endogenous in cells; host or cells: CH27 B cell lymphoma (mitomycin C-treated)
Protocol: as §1, §2, §3, §4, §5

[3] = test system: HLA-DR1 molecules; assay: release of biotin-labeled hMBP(90-102) from HLA-DR1 without unlabeled antigenic peptide (assay I); format: binding, human; details: for Relative Release, Without unlabeled hMBP(90-102), 1 μM / Relative Release, Without unlabeled hMBP(90-102), 64 μM: Table 37, no unlabeled hMBP(90-102); for Relative Release, Without unlabeled hMBP(90-102), 1 μM: AE101 series compound 1 μM; for Relative Release, Without unlabeled hMBP(90-102), 64 μM / Relative Release: AE101 series compound 64 μM; for Relative Release: Table 36, fraction of o.d. of positive control (PBS only = 1.0; negative control = 0.0)
[4] = molecular target: T3, HLA-DR1 molecules (Homo sapiens, UniProt P01903+P01911, A100R/D57E/F55L/F60I/F76Y/I96L/L162R/M171V/P40L/Q125E/R42F/V115G/Y59C); assay: binding of biotin-labeled hMBP(90-102) to "empty" HLA-DR1 (assay IV); details: Table 39; AE101 series compound 64 μM; biotin-labeled hMBP(90-102) 50 μM, 37° C., 1 h; no enhancement = 1
T3 construct: The HLA-DR alpha gene was truncated after Asn^192 to remove transmembranal and cytoplasmic regions from the protein product; A gene coding for the HLA-DR1 beta chain was truncated after position Lys^198, again to delete the transmembranal region; made in house; host or cells: insect cell line printed as HS / H5 (Invitrogen), co-infected with two baculoviruses; concentrated culture supernatant captured on 12CA5 antibody

[5] = test system: HLA-DR1 molecules; assay: release of biotin-labeled hMBP(90-102) from HLA-DR1 in the presence of unlabeled hMBP (assay II); format: binding, human; details: for Relative Release, With unlabeled hMBP(90-102), 1 μM / Relative Release, With unlabeled hMBP(90-102), 64 μM: Table 37, unlabeled hMBP(90-102) 250 μM; for Relative Release, With unlabeled hMBP(90-102), 1 μM: AE101 series compound 1 μM; for Relative Release, With unlabeled hMBP(90-102), 64 μM: AE101 series compound 64 μM

T2 sequence (P01910 24-256): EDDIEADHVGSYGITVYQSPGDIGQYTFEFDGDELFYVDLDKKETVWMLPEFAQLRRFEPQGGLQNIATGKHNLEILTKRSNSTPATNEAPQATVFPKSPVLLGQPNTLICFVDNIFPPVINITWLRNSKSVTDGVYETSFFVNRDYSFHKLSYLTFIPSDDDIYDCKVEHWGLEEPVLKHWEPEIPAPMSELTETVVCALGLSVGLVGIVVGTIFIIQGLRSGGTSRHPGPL
T2 sequence (P06343 28-263): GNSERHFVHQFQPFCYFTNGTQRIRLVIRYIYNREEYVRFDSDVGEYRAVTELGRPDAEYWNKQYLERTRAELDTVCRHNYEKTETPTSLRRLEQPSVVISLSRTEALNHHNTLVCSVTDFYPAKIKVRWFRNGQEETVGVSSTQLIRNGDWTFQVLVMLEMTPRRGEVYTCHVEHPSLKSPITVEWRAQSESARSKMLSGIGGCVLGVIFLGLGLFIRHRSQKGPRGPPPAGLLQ

Substance: Ac-DSLRMKLPKSAK-NH2 [AE154]
- Times Baseline Response, A^d [1]: 1.1
- Times Baseline Response, A^k [2]: 1.0

Substance: Ac-LDSLRMKLPKSAK-NH2 [AE153]
- Times Baseline Response, A^d [1]: 1.2
- Times Baseline Response, A^k [2]: 1.0

- activity in simultaneous assay in the A^k system, in words [2]: inhibitory
Substance: Ac-LQLDSLRMKLPKSAK-NH2 [AE151]
- Times Baseline Response, A^d [1]: 1.1
- Times Baseline Response, A^k [2]: 0.5

Substance: Ac-LR L KLPK-NH2 (Ac-LRLKLPK-NH2; not fully specified; printed as Ac-LR L KLPK-NH2) [AE206]
- Relative Release, Without unlabeled hMBP(90-102), 1 μM [3]: 0.58
- Relative Release, Without unlabeled hMBP(90-102), 64 μM [3]: 0.08
- Relative Enhancement [4]: 2.57
- Relative Release, With unlabeled hMBP(90-102), 1 μM [5]: 0.03
- Relative Release, With unlabeled hMBP(90-102), 64 μM [5]: −0.29

Substance: Ac-LRMK Y PK-NH2 (Ac-LRMKYPK-NH2; not fully specified; printed as Ac-LRMK Y PK-NH2) [AE235]
- release of biotin-labeled hMBP(90-102) from HLA-DR1 without second unlabeled antigenic peptide, in words ([3]; Table 36 (compounds tested at 64 μM)): did not release
- Relative Release [3]: 0.79
- Relative Release, Without unlabeled hMBP(90-102), 1 μM [3]: 1.05
- Relative Release, Without unlabeled hMBP(90-102), 64 μM [3]: 0.81
- Relative Enhancement [4]: 0.61
- Relative Release, With unlabeled hMBP(90-102), 1 μM [5]: 0.48
- Relative Release, With unlabeled hMBP(90-102), 64 μM [5]: 0.6

Substance: Ac-LRMKLPK-NH2 [AE114]
- release of antigenic peptide from HLA-DR1 in presence of second antigenic peptide, in words ([5]; excess second antigenic peptide): can catalyze the release of antigenic peptide from the antigenic peptide binding site only in the presence of excess quantities of a second antigenic peptide

- activity in simultaneous assay in the A^d system, in words ([1]; 64 μM): not active
- activity in simultaneous assay in the A^k system, in words [2]: inactive
Substance: Ac-LRMKLPKSAK-NH2 [AE110]
- Times Baseline Response, A^d [1]: 0.7
- Times Baseline Response, A^k [2]: 0.8

- activity in simultaneous assay in the A^k system, in words [2]: inhibitory
Substance: Ac-NLQLDSLRMKLPKSAK-NH2 [AE150]
- Times Baseline Response, A^d [1]: 1.0
- Times Baseline Response, A^k [2]: 0.0

- activity in simultaneous assay in the A^k system, in words [2]: inhibitory
Substance: Ac-QLDSLRMKLPKSAK-NH2 [AE152]
- Times Baseline Response, A^d [1]: 0.9
- Times Baseline Response, A^k [2]: 0.5

Substance: Ac-SLRMKLPKSAK-NH2 [AE155]
- Times Baseline Response, A^d [1]: 0.8
- Times Baseline Response, A^k [2]: 1.0

Substance: Ac-YRMKL hydrP KSAK-NH2 (Ac-YRMKL[hydrP]KSAK-NH2) [AE143]
- Relative Release, Without unlabeled hMBP(90-102), 1 μM [3]: 0.51
- Relative Release, Without unlabeled hMBP(90-102), 64 μM [3]: 0.58
- Relative Release, With unlabeled hMBP(90-102), 1 μM [5]: 0.35
- Relative Release, With unlabeled hMBP(90-102), 64 μM [5]: 0.21

Substance: Ac-YRMKLPKSAK-NH2 [AE109]
- Times Baseline Response, A^d [1]: 0.9
- Times Baseline Response, A^k [2]: 1.2

Substance: YRMKLPKSAKPVSQMR [AE101]
- release of hMBP(90-102) from HLA-DR1 ([3]; AE peptide at 125 nM, additional experiments): completely release
- release of biotin-labeled hMBP(90-102) (Relative Release) ([3]; AE peptide at 1 μM without unlabeled hMBP(90-102)): 0.02
- Relative Release [3]: −0.33
- Relative Enhancement [4]: 2.66
